Measured values published in article PMC2956136.

Biological target: GST-RanQ69LGTP (UniProt P62826)
Assay: SPR

“importin β (from UniProt Q14974 1-876) (natural protein; other documents disagree on this pair)” was tested, and the drop in response units with 5 μM Iβ1A against the DMSO control was 70%.
